Assay [1] concerns the target cardiac amyloid deposits (ATTR amyloid) (UniProt P02766). As to the kind of experiment: ex vivo binding curve on cardiac tissue sections with amyloid (FIG. 5G); same value in mass units.
The target is the same in assay [2]. Put plainly: ex vivo binding to cardiac amyloid in tissue sections, quantified as % of maximum.
The target is the same in assay [3]. As to the kind of experiment: ex vivo binding curve on cardiac tissue sections with amyloid (FIG. 5G).

Drawing on US20230391859A1, this text covers Kd and EC50 (read off the curve) for one substance.

“murine precursor of PRX004 (mPRX004) (antibody)”: the Kd in assay [1] amounted to 0.26 µg/mL; in assay [3], 1.75 nM. This substance gave a 50% effective concentration (EC50 (read off the curve)) in assay [2] of 0.3 µg/mL.

The Kd is the free concentration of one partner at which half of the binding sites on the other are occupied at equilibrium, for simple one-to-one binding. Low readings indicate a tighter complex, high ones a looser complex. By EC50 (read off the curve) is commonly meant the concentration at which the effect is half-maximal.
